# Data reported in paper PMC10341807, “Lung Surfactant Protein B Peptide Mimics Interact with the Human ACE2 Receptor” (International Journal of Molecular Sciences, 2023).
# Bridges are numbered along the chain shown (N, C = ends). Where no end group is shown, it is not given here.
# What was measured:
# [1] = target: recombinant human ACE2 receptor construct (angiotensin-converting enzyme 2) (human) (UniProt Q9BYF1); assay: SPR; Biacore T100; ACE2 immobilised on the sensor chip, peptide (from 1 mg/mL in DMSO, diluted in HBS-EP buffer, 0.5 µg/mL) flowed at 30 µL/min for 5 min; 37 °C; HBS-EP: 10 mM Hepes pH 7.4, 150 mM NaCl, 3 mM EDTA, 0.005% surfactant P20
# Sequence of recombinant human ACE2 receptor construct (angiotensin-converting enzyme 2) (human) (Q9BYF1 18-740): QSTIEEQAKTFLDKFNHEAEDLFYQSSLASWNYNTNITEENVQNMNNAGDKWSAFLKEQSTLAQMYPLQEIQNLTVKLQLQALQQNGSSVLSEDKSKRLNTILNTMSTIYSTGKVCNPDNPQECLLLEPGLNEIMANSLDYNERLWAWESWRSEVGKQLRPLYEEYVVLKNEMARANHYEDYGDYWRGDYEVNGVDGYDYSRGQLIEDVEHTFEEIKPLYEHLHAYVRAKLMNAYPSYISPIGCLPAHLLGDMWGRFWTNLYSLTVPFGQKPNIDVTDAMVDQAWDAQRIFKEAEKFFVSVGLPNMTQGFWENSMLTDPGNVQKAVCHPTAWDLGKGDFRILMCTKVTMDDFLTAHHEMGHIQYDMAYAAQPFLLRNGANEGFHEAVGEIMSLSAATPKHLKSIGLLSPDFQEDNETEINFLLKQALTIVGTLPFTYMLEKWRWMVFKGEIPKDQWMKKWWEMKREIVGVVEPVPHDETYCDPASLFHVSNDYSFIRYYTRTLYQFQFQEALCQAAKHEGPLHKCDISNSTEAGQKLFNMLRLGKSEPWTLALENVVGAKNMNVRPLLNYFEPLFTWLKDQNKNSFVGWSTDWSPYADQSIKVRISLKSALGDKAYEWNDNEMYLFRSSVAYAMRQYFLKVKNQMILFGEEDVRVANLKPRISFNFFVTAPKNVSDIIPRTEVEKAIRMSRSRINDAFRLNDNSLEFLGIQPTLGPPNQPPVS
# [2] = target: T1, recombinant human ACE2 receptor construct (Homo sapiens, UniProt Q9BYF1); assay: Surface plasmon resonance (SPR) binding of peptides to immobilised rhACE2; conditions: pH 7.4, read-out: ka
# T1 construct: included residues Glutamine 18 to Serine 740 of the full-length protein; 10xHis (C); purchased R&D Systems
# T1 sequence (Q9BYF1 18-740): as above
# Description: The binding of the solute to the sensor surface ligand results in an evanescent sensor response and is measured in response units (RU) that are proportional to the bound mass.
# Expressed viral spike and human ACE2 receptor protein constructs were supplied by R&D Systems (https://www.bio-techne.com accessed on 25 May 2023). The recombinant human ACE2 receptor construct included residues Glutamine 18 to Serine 740 of the full-length protein with a C-terminal 10 Histidine tag.
# The organic-solvated peptides were then diluted into 1–2000 dilutions in the HBS–EP buffer for injection. Binding measurements were then made by flowing a running buffer solution of the test sample in the HBS–EP buffer over the chip-associated ACE2 at a flow rate of 30 µL/min for 5 min to determine the binding affinity at 37 °C. […] The binding associated with control medium containing no peptide was subtracted from final affinity traces. The mean “on” and “off” rate constants (kon and koff) and the dissociation equilibrium constant (KD = koff/kon) were calculated using Biacore Insight Evaluation Software version 5, based on curve-fitting measurements.
Substance,Ka [1] [M⁻¹],Kd [1] [nM],Kobs (at 1.05 × 10^−7 analyte) [1] [s⁻¹],koff [1] [s⁻¹],kon [1] [M⁻¹ s⁻¹],kon [2] [M⁻¹ s⁻¹]
"Super Mini-B (SMB), synthetic lung surfactant protein B peptide mimic",1.01e+08,9.87,0.000712,6.12e-05,6200,
"FPIPLPYCWLCRALIKRIQAMIPKGGRMLPQLVCRLVLRCS (disulfide 8-40, 11-34) [SMB]",,,,,,6200
FPIPLPYYWLYRALIKRIQALIPKGGRLLPQLVYRLVLRYS [B-YL],,,,,,21900
